The record followed here is patent publication US20060204957A1 (published 2006).

Sequences and labels used below:
B5: MTA1s (other)
chain: MAANMYRVGDYVYFENSSSNPYLIRRIEELNKTANGNVEAKVVCFYRRRDISSTLIALADKHATLSVCYKAGPGADNGEEGEIEEEMENPEMVDLPEKLKHQLRHRELFLSRQLESLPATHIRGKCSVTLLNETESLKSYLEREDFFFYSLVYDPQQKTLLADKGEIRVGNRYQADITDLLKEGEEDGRDQSRLETQVWEAHNPLTDKQIDQFLVVARSVGTFARALDCSSSVRQPSLHMSAAAASRDITLFHAMDTLHKNIYDISKAISALVPQGGPVLCRDEMEEWSASEANLFEEALEKYGKDFTDIQQDFLPWKSLTSIIEYYYMWKTTDRYVQQKRLKAAEAESKLKQVYIPNYNKPNPNQISVNNVKAGVVNGTGAPGQSPGAGRACESCYMSSLRILLDILEEIWWLENANPVRWREARTKPQ
notes: also called MTA1s (short); S2 clone

In one experiment the target is T1, Estrogen Receptor α (ER) (UniProt P03372 1-595).
T1 construct: Endogenous intracellular receptor in breast cancer cell lysates, and ER where no construct is named; also called ERα; endogenous ER
T1 sequence (looked up): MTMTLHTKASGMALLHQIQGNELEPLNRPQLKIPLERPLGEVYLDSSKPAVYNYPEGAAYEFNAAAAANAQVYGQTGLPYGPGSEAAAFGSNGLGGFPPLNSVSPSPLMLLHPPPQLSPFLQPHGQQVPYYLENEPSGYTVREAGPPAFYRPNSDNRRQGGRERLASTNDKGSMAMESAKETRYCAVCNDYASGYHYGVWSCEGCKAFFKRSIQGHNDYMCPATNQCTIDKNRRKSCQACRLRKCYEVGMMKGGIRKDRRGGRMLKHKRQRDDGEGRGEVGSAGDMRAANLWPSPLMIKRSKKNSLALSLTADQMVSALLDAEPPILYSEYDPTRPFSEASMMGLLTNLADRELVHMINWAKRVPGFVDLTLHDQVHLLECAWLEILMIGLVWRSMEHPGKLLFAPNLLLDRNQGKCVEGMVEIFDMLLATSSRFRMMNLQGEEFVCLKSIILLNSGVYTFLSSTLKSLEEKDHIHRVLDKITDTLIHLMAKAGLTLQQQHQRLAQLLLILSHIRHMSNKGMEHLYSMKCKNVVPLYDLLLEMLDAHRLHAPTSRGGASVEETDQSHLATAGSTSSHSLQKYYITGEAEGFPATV
In words: immunoprecipitation with T7-mAb, immunoblot for ERα (FIG. 4D). (In general: A western blot detects proteins with antibodies after separation by electrophoresis.)

The target of the next experiment is T2, GAD-ERα (UniProt P03372 1-536).
T2 construct: range 1-536; Yeast two-hybrid prey; also called GAD-ERα amino acids 1-536
T2 sequence (looked up): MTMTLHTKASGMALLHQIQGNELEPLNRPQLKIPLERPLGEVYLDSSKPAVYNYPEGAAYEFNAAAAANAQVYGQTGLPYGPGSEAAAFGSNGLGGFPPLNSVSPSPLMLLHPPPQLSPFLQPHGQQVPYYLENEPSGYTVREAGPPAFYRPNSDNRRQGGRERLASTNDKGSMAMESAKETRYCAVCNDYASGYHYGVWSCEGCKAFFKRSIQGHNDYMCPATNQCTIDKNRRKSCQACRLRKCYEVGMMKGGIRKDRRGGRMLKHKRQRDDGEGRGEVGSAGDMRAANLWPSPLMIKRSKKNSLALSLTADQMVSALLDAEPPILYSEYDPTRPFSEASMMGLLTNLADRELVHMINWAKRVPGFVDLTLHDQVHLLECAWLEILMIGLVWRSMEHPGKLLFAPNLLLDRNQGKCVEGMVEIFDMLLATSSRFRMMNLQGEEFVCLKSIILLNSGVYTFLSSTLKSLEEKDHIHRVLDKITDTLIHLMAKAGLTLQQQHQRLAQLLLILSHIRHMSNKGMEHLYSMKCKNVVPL
The experiment in a line: yeast two-hybrid (FIG. 4B).

For experiment [1], the target named is T3, bifunctional ATP sulfurylase/adenosine 5'-phosphosulfate (APS) kinase (UniProt O43252 1-624, limits assumed).
T3 construct: Two-hybrid isolate
T3 sequence (looked up): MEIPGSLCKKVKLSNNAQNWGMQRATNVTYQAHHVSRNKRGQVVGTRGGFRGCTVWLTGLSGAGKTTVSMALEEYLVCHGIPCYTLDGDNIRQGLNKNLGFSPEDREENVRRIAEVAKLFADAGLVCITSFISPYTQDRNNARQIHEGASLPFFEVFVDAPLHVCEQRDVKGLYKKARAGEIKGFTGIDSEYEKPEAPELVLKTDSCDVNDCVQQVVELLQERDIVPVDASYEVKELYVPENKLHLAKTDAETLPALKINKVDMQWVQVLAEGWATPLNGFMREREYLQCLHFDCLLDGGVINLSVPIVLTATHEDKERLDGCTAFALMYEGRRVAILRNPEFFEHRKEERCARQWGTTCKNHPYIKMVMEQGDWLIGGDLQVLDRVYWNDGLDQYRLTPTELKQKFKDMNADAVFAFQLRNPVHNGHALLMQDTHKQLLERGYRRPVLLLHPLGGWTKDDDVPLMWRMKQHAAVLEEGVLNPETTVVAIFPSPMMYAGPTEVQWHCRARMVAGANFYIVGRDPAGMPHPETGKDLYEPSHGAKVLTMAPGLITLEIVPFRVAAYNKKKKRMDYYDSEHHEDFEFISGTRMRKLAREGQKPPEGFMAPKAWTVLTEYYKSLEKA
In words: yeast two-hybrid screen for MTA1s-interacting proteins.

The target in experiment [2] is T4, Homologs to eukaryotic translation initiation factor 3, subunit 6 (48 kD) (UniProt P60228 1-445, limits assumed).
T4 construct: Two-hybrid isolate; also called Cone S 64-1
The experiment in a line: FIG. 14 legend.

The experiment “MTA1s” addresses B5. In words: FIG. 14 legend.

T4 sequence (P60228 whole entry): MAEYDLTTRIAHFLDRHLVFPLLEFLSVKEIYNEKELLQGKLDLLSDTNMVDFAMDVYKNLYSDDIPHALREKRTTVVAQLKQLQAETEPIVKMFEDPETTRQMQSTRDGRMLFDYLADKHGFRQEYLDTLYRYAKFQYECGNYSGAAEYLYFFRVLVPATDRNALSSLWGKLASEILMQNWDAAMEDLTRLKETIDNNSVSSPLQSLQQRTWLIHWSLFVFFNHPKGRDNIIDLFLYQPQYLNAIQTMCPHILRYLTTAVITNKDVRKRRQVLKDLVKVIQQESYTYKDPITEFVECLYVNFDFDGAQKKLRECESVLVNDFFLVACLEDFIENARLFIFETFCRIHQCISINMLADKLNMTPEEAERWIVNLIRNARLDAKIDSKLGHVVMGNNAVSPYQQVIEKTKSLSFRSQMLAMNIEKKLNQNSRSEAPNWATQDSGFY

B1: T7-MTA1sstop (other, not shown: small tags and cut ends)
chain: MAANMYRVGDYVYFENSSSNPYLIRRIEELNKTANGNVEAKVVCFYRRRDISSTLIALADKHATLSVCYKAGPGADNGEEGEIEEEMENPEMVDLPEKLKHQLRHRELFLSRQLESLPATHIRGKCSVTLLNETESLKSYLEREDFFFYSLVYDPQQKTLLADKGEIRVGNRYQADITDLLKEGEEDGRDQSRLETQVWEAHNPLTDKQIDQFLVVARSVGTFARALDCSSSVRQPSLHMSAAAASRDITLFHAMDTLHKNIYDISKAISALVPQGGPVLCRDEMEEWSASEANLFEEALEKYGKDFTDIQQDFLPWKSLTSIIEYYYMWKTTDRYVQQKRLKAAEAESKLKQVYIPNYNKPNPNQISVNNVKAGVVNGTGAPGQSPGAGRACESCY
notes: Expressed in MCF-7 cells for immunoprecipitation with T7-mAb; also called T7-tagged MTA1s-stop
Turning to B1, the binding result in the experiment with Estrogen Receptor α (ER) was “no binding”.

B2: MTA1s-stop (other)
chain: MAANMYRVGDYVYFENSSSNPYLIRRIEELNKTANGNVEAKVVCFYRRRDISSTLIALADKHATLSVCYKAGPGADNGEEGEIEEEMENPEMVDLPEKLKHQLRHRELFLSRQLESLPATHIRGKCSVTLLNETESLKSYLEREDFFFYSLVYDPQQKTLLADKGEIRVGNRYQADITDLLKEGEEDGRDQSRLETQVWEAHNPLTDKQIDQFLVVARSVGTFARALDCSSSVRQPSLHMSAAAASRDITLFHAMDTLHKNIYDISKAISALVPQGGPVLCRDEMEEWSASEANLFEEALEKYGKDFTDIQQDFLPWKSLTSIIEYYYMWKTTDRYVQQKRLKAAEAESKLKQVYIPNYNKPNPNQISVNNVKAGVVNGTGAPGQSPGAGRACESCY
With B2, the binding result in the experiment with GAD-ERα is given as “no binding”.

B3: T7-MTA1sdel (other, not shown: small tags and cut ends)
chain: MAANMYRVGDYVYFENSSSNPYLIRRIEELNKTANGNVEAKVVCFYRRRDISSTLIALADKHATLSVCYKAGPGADNGEEGEIEEEMENPEMVDLPEKLKHQLRHRELFLSRQLESLPATHIRGKCSVTLLNETESLKSYLEREDFFFYSLVYDPQQKTLLADKGEIRVGNRYQADITDLLKEGEEDGRDQSRLETQVWEAHNPLTDKQIDQFLVVARSVGTFARALDCSSSVRQPSLHMSAAAASRDITLFHAMDTLHKNIYDISKAISALVPQGGPVLCRDEMEEWSASEANLFEEALEKYGKDFTDIQQDFLPWKSLTSIIEYYYMWKTTDRYVQQKRLKAAEAESKLKQVYIPNYNKPNPNQISVNNVKAGVVNGTGAPGQSPGAGRACESCYMSSDILEEIWWLENANPVRWREARTKPQ
notes: Expressed in MCF-7 cells for immunoprecipitation with T7-mAb; also called T7-tagged MTA1s-del
In the case of B3, in the experiment with Estrogen Receptor α (ER), the binding result is reported as “no binding”.

B4: MTA1s-del (other)
chain: MAANMYRVGDYVYFENSSSNPYLIRRIEELNKTANGNVEAKVVCFYRRRDISSTLIALADKHATLSVCYKAGPGADNGEEGEIEEEMENPEMVDLPEKLKHQLRHRELFLSRQLESLPATHIRGKCSVTLLNETESLKSYLEREDFFFYSLVYDPQQKTLLADKGEIRVGNRYQADITDLLKEGEEDGRDQSRLETQVWEAHNPLTDKQIDQFLVVARSVGTFARALDCSSSVRQPSLHMSAAAASRDITLFHAMDTLHKNIYDISKAISALVPQGGPVLCRDEMEEWSASEANLFEEALEKYGKDFTDIQQDFLPWKSLTSIIEYYYMWKTTDRYVQQKRLKAAEAESKLKQVYIPNYNKPNPNQISVNNVKAGVVNGTGAPGQSPGAGRACESCYMSSDILEEIWWLENANPVRWREARTKPQ
With B4, in the experiment with GAD-ERα, the binding result was “no binding”.

For B5, the binding result in experiment [1] and in experiment [2] was “binds” throughout.

B6: LMO4 (other, UniProt P61968 1-165, looked up)
chain: MVNPGSSSQPPPVTAGSLSWKRCAGCGGKIADRFLLYAMDSYWHSRCLKCSCCQAQLGDIGTSCYTKSGMILCRNDYIRLFGNSGACSACGQSIPASELVMRAQGNVYHLKCFTCSTCRNRLVPGDRFHYINGSLFCEHDRPTALINGHLNSLQSNPLLPDQKVC
notes: Two-hybrid isolate; also called LIM 04; LIM04
In the case of B6, in the experiment with MTA1s, the binding result is given as “binds”.

B7: Casein Kinase 1, γ2 (enzyme)
chain: not shown
notes: Two-hybrid isolate; also called clone S55-1
Consider B7, for which the binding result with MTA1s is “binds”.
